According to patent publication US20240131198A1, “RATIOMETRIC BIOSENSOR TATTOOS AND USE THEREOF FOR REAL TIME MEASUREMENTS” (priority 2022, published 2024):

What was measured:
[1] = tested on: inflammatory filaggrin-deficient (FLG-) skin model; test: H-Cy5-PEG/Cy7.5-PEG microneedle tattoo in human-based atopic skin model; format: cell-based; settings: human-based atopic model of skin inflammation, 20 minutes
Protocol: To provide the proof of concept for our approach and to validate the potential use of a medical tattoo in a biological system, the sensing properties of the generated MNs were tested in human-based inflammatory skin model that closely emulates characteristics of atopic skin in vitro^[76] and has been previously verified for the presence of disease-relevant ROS.^[77] This model has been extensively characterized in previous work showing excellent correlation with atopic skin in vivo.^[76,78,79] The skin model is based on a filaggrin knockdown, as filaggrin mutations are a major pre-disposing factor for AD.^[80] […] Cy7.5 was selected based on its structural similarity to Cy5 and other cyanines, displaying similar physicochemical properties and allowing PEGylation in the same manner as Cy5, as well as its NIR fluorescence (λex=788 nm; λem=808 nm), optimal for visibility in the skin. […]
The MNs rapidly dissolved within 2 minutes, after which the backing layer was carefully removed. The fluorescence intensities of the sensor and reference dye in the skin models were determined using an IVIS Lumina II imaging system (Perkin Elmer) at 0, 5, 15 and 20 mins after MN application. […] The fluorescence signal for each model was assessed by selecting a region of interest (ROI) and by the signal-to-noise ratio (Cy5 ROI/Cy7.5 ROI).

[2] = Reoxidation of H-Cy5-PEG/Cy7.5-PEG microneedle tattoo in excised porcine skin; settings: H2O2 (100 mM) or Fenton's reagent (40 μM/400 μM), portable fluorescence reader
Protocol: Microneedle tattoos containing both the sensor and reference dye were delivered ex vivo to excised porcine skin that had been treated with either distilled water (control), or a source of ROS—either H2O2 (100 mM) or Fenton's reagent (40 μM/400 μM).
Excised porcine skin was obtained and shaved using a manual blade razor to remove any hair. The skin was permeabilized using a 1.0 mm dermaroller (DermaRollerSystem.com, Markham, ON), 200 μL of either distilled H2O, 100 mM H2O2, or Fenton's Reagent (40 μM FeSO4/400 μM H2O2) was added and allowed to soak into the skin for 20 minutes, after which any excess was removed with a paper towel. […] After removal of the MN backing layer, the fluorescence of the application site was measured with the portable fluorescence reader, using both the Cy5 and Cy7.5 filters (Cy5: λex=638 nm, λem=668-702 nm; Cy7.5: λex=782 nm, λem=810-840 nm). For each MN application, 3 measurements were recorded at each wavelength.

[3] = tested on: UV-induced dermal ROS; test: In vivo sensing of UV irradiation-induced ROS in rat skin; set-up: species or system Sprague-Dawley rats; settings: 30 minutes after application, t=0 h and t=24 h after irradiation
Source text: Male Sprague-Dawley rats (Charles River, St-Constant, QC) with weight ranging from 300-350 g at delivery were used for this study. Following arrival in the animal facility, all animals were subjected to a general health evaluation. An acclimation period of 5 days was allowed before the beginning of the study. Each animal cage was equipped with a manual water distribution system. A standard certified commercial rodent diet was provided ad libitum. Tap water was provided ad libitum at all times. Rats dorsal skin was shaved and depilated under isoflurane-induced anesthesia using an electric razor and depilating cream (Nair, Church & Dwight) the day before experimentation. Rats were extensively rinsed to prevent burning with residual depilating agent. For irradiation, animals were anesthetized with isoflurane and placed under the UV irradiating lamp (Daavlin 24″ research unit×305/350-6/6) equipped with a UV power meter to manually validate constant dosimetry. Irradiated animal received 700 mJ·cm^2 of UVB. […] Three MN arrays were applied at the same time on different sites of the dorsal skin. MNs were removed, and the application sites were scanned for fluorescence using the portable fluorescence reader. On the first day, sites were read after 0.5, 1, 4, and 6 h. On the second day, new MNs were applied and read immediately or 6 h after application. […]

[4] = tested on: rat skin; test: Delivery of Cy5-PEG/Cy3-PEG microneedle tattoo to the shaved skin of living rats; format: in vivo; settings: MN delivery, fluorescence stereomicroscopy several hours after application
[5] = 50 μM/500 μM of FeSO4:H2O2, 10 μM dye

Molecule | Cy7.5-PEG fluorescence intensity over time [1] | fluorescence at Cy7.5-PEG wavelengths in the presence of ROS [2] | Cy7.5-PEG fluorescence intensity after application in vivo [3] | diffusion in the skin [4] | signal retained when exposed to ROS [5] [%]
Cyanine-7.5-PEG [Cy7.5-PEG] | did not decrease | unaffected | no significant decrease |  | 
CN1/C(=C/C=C/C2=[N+](CCCCCC(=O)O)c3ccccc3C2(C)C)C(C)(C)c2ccccc21 [Cy3, Cyanine-3] |  |  |  | minimal diffusion | 40
CN1/C(=C/C=C/C=C/C2=[N+](CCCCCC(=O)O)c3ccccc3C2(C)C)C(C)(C)c2ccccc21 [Cy5, Cyanine-5] |  |  |  | minimal diffusion | 
